# Data published in patent US20240317872A1.
# Tests used:
# human 4-1BB (human) [1] = target: human 4-1BB (human) (UniProt Q07011); assay: flow cytometry on CHO-K1 cells expressing 4-1BB
# human 4-1BB (human) [2] = target: human 4-1BB (human) (UniProt Q07011); assay: cell-based or functional assay
# Chain of human 4-1BB (human) (Q07011 24-255): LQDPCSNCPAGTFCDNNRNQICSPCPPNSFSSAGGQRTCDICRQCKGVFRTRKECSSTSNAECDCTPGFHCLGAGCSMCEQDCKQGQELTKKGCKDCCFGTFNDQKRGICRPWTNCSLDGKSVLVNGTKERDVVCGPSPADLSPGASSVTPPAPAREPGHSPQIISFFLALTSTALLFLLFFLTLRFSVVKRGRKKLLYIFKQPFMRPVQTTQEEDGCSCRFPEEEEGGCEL
substance,measurement,setting,value
WBP342-BMK3.hIgG4 (antibody),EC50,human 4-1BB (human) [1],0.123 nM
same,Top (MFI),human 4-1BB (human) [1],1120 MFI
same,"reporter gene assay (NFkB luciferase), EC50",human 4-1BB (human) [2],0.33 nM
same,"reporter gene assay (NFkB luciferase), Top (RLU)",human 4-1BB (human) [2],1.09e+06 RLU
